Assay results reported in PMC7070046, “Sjögren syndrome/scleroderma autoantigen 1 is a direct Tankyrase binding partner in cancer cells” (Communications Biology, 2020).
Where no end group is shown, it is not given here.

T1: TNKS1 ARC subdomains 1–3 (ARC1–3, residues 178–645) (human, UniProt O95271 178-645)
T1 construct: human Tankyrase 1, ankyrin repeat clusters 1-3, residues 178-645; Cloned into pETM11 with NcoI and XhoI; also called TNKS1 ARC1–3
T1 sequence (looked up): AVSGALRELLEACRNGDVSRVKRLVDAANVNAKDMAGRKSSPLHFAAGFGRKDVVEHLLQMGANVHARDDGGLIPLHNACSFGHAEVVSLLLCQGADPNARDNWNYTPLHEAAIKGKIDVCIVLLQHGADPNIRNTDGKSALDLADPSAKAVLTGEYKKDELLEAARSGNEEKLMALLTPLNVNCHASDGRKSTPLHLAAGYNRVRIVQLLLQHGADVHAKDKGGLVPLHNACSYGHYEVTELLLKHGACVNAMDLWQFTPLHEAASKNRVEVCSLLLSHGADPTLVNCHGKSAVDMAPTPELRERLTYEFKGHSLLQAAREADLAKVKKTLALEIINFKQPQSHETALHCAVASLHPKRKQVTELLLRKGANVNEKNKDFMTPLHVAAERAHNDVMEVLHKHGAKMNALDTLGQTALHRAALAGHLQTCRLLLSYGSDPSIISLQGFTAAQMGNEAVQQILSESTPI

T2: TNKS1 ARC subdomains 1–3 (ARC1–3, residues 178–645) (human, UniProt O95271 178-645)
T2 chain: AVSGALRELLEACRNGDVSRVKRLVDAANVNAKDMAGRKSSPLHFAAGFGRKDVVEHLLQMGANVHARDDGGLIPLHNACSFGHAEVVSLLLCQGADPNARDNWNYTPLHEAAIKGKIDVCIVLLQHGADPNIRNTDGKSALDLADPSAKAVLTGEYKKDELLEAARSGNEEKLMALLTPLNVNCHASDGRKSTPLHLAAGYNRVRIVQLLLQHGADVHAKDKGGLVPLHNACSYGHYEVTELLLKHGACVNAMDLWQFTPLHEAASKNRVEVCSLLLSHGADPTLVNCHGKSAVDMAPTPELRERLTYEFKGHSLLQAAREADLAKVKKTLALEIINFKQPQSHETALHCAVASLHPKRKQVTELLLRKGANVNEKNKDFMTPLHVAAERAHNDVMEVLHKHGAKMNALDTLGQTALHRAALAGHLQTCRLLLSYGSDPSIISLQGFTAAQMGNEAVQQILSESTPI


How the values were obtained:
[1] = target: T1, TNKS1 ARC subdomains 1–3 (ARC1–3, …); test: fluorescence polarisation; 50 nM 5-FAM-Ahx peptide with varied ARC1–3 protein; 25 mM HEPES pH 8, 150 mM NaCl, 1 mM TCEP, 5% glycerol, 0.05% CHAPS; room temperature, 60 min; one-site total binding model; conditions: both partners purified
[2] = target: the molecule itself; test: SEC; HiLoad Superdex S75 16/600; 20 mM HEPES pH 7.4, 200 mM NaCl, 5% glycerol, 0.1 mM TCEP; elution compared with standard proteins (estimated native MW 24.6 kDa, predicted 12.5 kDa)
[3] = target: T2, TNKS1 ARC subdomains 1–3 (ARC1–3, …); test: FP

binding result [1] | Kd [3] [nM] | Binder | stoichiometry N [2]
binds |  | TSLETSIQLCGLIRACAEALRSLQQL (cysteine pairing not given here; also: 5-FAM-Ahx conjugate, position not given here, human SSSCA1, helix H2 region; source: synthetic peptide (bought: GenScript)) | 
 |  | SSSCA1 N-terminal Auto_anti-p27 domain (M1-S111) (domain or fragment, human, UniProt O60232 1-111, looked up, Residues 1-12 and 78-111 are not modelled in the crystal structure; also called N-terminal SSSCA1; hSSSCA1; not shown: His6, N-terminal, cleaved) MALNGAEVDDFSWEPPTEAETKVLQARRERQDRISRLMGDYLLRGYRMLGETCADCGTILLQDKQRKIYCVACQELDSDVDKDNPALNAQAALSQAREHQLASASELPLGS | 2
binds | 460 | EDAPRPPVPGEEG (not fully specified (N-terminus); also: 5-FAM-Ahx-conjugated, source: synthetic peptide (bought: GenScript)) [Axin1 positive control peptide (EDAPRPPVPGEEG)] | 
binds | 460 | DVMACTQTALLQKLTWASAELGSS (not fully specified (N-terminus); also: 5-FAM-Ahx-conjugated, human SSSCA1, helix H1 region; source: synthetic peptide (bought: GenScript)) [SSSCA1-H1 peptide (DVMACTQTALLQKLTWASAELGSS)] | 
 | 60 | TSLETSIQLCGLIRACAEALRSLQQL (not fully specified (N-terminus); cysteine pairing not given here; also: 5-FAM-Ahx-conjugated) | 
